Laboratory results reported in patent US20190227063A1.

Experiments:
[1] = target: HLA-A*02:01 in complex with WT1 aa126-134 peptide …, on T2 cells expressing the PresentER RMF minigene (human); experiment: >
[2] = target: HLA-A*02:01 in complex with PRAME300-309 peptide …, on T2 cells expressing the PresentER ALY minigene (human); experiment: flow cytometry histograms, T2 cells expressing PresentER minigenes

fluorescence units (FU) [1]	fluorescence units (FU) [2]	Substance
1000 >	< 1000 FU	ESK1 TCR mimic (TCRm) monoclonal antibody
	> 1100 FU	Pr20 TCR mimic (TCRm) monoclonal antibody
